The target of test [1] is T1, PD-L1-streptavidin (UniProt Q9NZQ7 19-238). Briefly: BLI (BLItz).
Test [2] has as its target T1, PD-L1-streptavidin. Briefly: BLI (BLItz). This is another data set of the same source.
In test [3] the target is T1, PD-L1-streptavidin. Briefly: BLI (BLItz); Fig. 12.

For orientation: Kd means the equilibrium constant for the complex coming apart.

T1 sequence (Q9NZQ7 19-238): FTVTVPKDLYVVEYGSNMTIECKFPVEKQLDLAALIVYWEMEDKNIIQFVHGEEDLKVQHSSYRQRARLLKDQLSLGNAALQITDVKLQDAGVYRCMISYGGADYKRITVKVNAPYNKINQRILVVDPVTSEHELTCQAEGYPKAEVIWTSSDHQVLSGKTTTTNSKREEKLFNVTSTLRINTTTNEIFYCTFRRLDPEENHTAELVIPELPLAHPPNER

B1: Q18 (protein)
chain: LDSPDRPWNPPTISPALLVVTEGDQATFTCGLPQTSESFVLNWYRIGPSQQMDKLAAFPEDRSQPGQDTRFRVTQLPNGRDFHMSVVRARRQDSGTYLCVAISLAPKVQIKESLRAELRVTERRAEVRTAHPSPSPRSAGQFQ
In turn, B1 displayed a Kd in test [1] of 46.9 nM.

B2: Q33 (protein)
chain: LDSPDRPWNPPTISPALLVVTEGDQATFTCSFSRTSESFVLNWYRISPSQQTDKLAAFPEDRSQPGQDTRFRVTQLPNGRDFHMSVVGAQRQDSGTYLCVAISLAPKVQIKESLRAELRVTERRAEVPTAHPSPSPRPAGQFQ
In test [1], B2 had a Kd of 35.1 nM.

B3: Q10 (protein)
chain: LDSPDRPWNPPTISPALLVVTEGDQATFTCSLSQTSESFVLNWYRISPSQQMDKLAAFPEDRSQPGQDTRFRVTQLPNGRDFHMSVDRARRQDSGSYLCVAISLAPKVQIKESLRAELRVTERRAEVPTAHPSPSPRPAGQFQ
With B3, binding in test [1] was put at a Kd of 50.1 nM.

B4: glycosylated PD-1 variant JY_Q12-2 (Q34N) (receptor)
chain: LDSPDRPLDPPTISPALLVVTEGDQATFTCSFSNTSKSFVLNWYRISPSQQTDKLAAFPEDRSQPGQDTRFRVTQLPNGRDFHMSVVRARRQDSGTYLCVAISLAPKVQIKESLRAELRVTERRAEVPTAHPSPSPRPACQFQ
modifications: sugar chain at N34 (N-linked glycosylation site restored, expressed in Expi293F)
B4: the affinity in test [2], expressed as Kd, was 0.899 nM.

B5: glycosylated PD-1 variant JY_Q12-3 (Q50N) (receptor)
chain: LDSPDRPLDPPTISPALLVVTEGDQATFTCSFSQTSKSFVLNWYRISPSNQTDKLAAFPEDRSQPGQDTRFRVTQLPNGRDFHMSVVRARRQDSGTYLCVAISLAPKVQIKESLRAELRVTERRAEVPTAHPSPSPRPACQFQ
modifications: sugar chain at N50 (N-linked glycosylation site restored, expressed in Expi293F)
The molecule B5 registered a Kd in test [2] of 3.24 nM.

B6: aglycosylated PD-1 variant Q12 (JY_Q12), soluble His-tagged protein (receptor)
chain: LDSPDRPLDPPTISPALLVVTEGDQATFTCSFSQTSKSFVLNWYRISPSQQTDKLAAFPEDRSQPGQDTRFRVTQLPNGRDFHMSVVRARRQDSGTYLCVAISLAPKVQIKESLRAELRVTERRAEVPTAHPSPSPRPACQFQ
In the case of B6, the Kd in test [2] turned out to be 11 nM; in test [1] it was 5.49 nM; in test [3], 5.49 nM.

B7: JY-Q12-4 (protein)
chain: LDSPDRPLDPPTISPALLVVTEGDQATFTCSFSQTSKSFVLNWYRISPSQQTDKLAAFPEDRSQPGQDTRFRVTQLPNGRDFHMSVVRARRNDSGTYLCVAISLAPKVQIKESLRAELRVTERRAEVPTAHPSPSPRPACQFQ
Consider B7, for which the affinity in test [2], expressed as Kd, was 17.3 nM.

B8: glycosylated PD-1 variant JY_Q12-1 (Q25N) (receptor)
chain: LDSPDRPLDPPTISPALLVVTEGDNATFTCSFSQTSKSFVLNWYRISPSQQTDKLAAFPEDRSQPGQDTRFRVTQLPNGRDFHMSVVRARRQDSGTYLCVAISLAPKVQIKESLRAELRVTERRAEVPTAHPSPSPRPACQFQ
modifications: sugar chain at N25 (N-linked glycosylation site restored, expressed in Expi293F)
B8 had a dissociation constant Kd in test [2] of 7.38 nM.
